± gives the uncertainty stated by the source.
Assay: self-splicing fitness, log relative to wild type (ln ratio); higher = more splicing; Tetrahymena group I intron in knt gene, E. coli kanamycin selection, DiMSum; sequences stand for … in CUCUCU…GGAGGGAAAAGUUAUCAGGCAUGCACCUGGUAGCUAGUCUUUAAACCAAUAGAUUGCAUCGGUUUAAAAGGCAAGACCGUCAAAUUGCGGGAAAGGGGUCAACAGCCGUUCAGUACCAAGUCUCAGGGGAAACUUUGAGAUGGCCUUGCAAAGGGUAUGGUAAUAAGCUGACGGACAUGGUCCUAACCACGCAGCCAAGUCCUAAGUCAACAGAUCUUCUGUUGAUAUGGAUGCAGUUCACAGACUAAAUGUCGGUCGGGGAAGAUGUAUUCUUCUCAUAAGAUAUAGUCGGACCUCUCCUUAAUGGGAGCUAGCGGAUGAAGUGAUGCAACACUGGAGCCGCUGGGAACUAAUUUGUAUGCGAAAGUAUAUUGAUUAGUUUUGGAGUACUCGUGGUCG
Method in brief: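 Library with all eight P1ex-region intron nucleotides randomised, intron inside the knt kanamycin-resistance gene on pET-22b(+), in E. coli BL21(DE3). Cells grew overnight at 37°C or 30°C on LB agar with or without 25 μg/mL kanamycin (plus 100 μg/mL carbenicillin, 50 μM IPTG, 0.2% rhamnose), in six replicate transformations. Pooled colonies were amplicon-sequenced on Illumina HiSeq 2500. DiMSum fitness is the error-weighted combination of wild-type-normalised replicate fold changes, kanamycin versus none.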

| Sequence | self-splicing fitness (ln) (30 °C) | self-splicing fitness (ln) (37 °C) |
| --- | --- | --- |
| CUAUAGCAAUAUUACGGAAG | -1.87 ± 0.12 | -0.957 ± 0.13 |
| CUAUAGCAAUAUUACGGGGG | -2.16 ± 0.23 | -3.09 ± 0.43 |
| CUAUAGCAAUAUUACGGUCC | -3.69 ± 0.4 | -2.56 ± 0.46 |
| CUAUAGCAAUAUUACGGUUA | -2.91 ± 0.2 | -2.84 ± 0.19 |
| CUAUAGCAAUAUUACGUAUA | -3.27 ± 0.42 | -2.56 ± 0.37 |
| CUAUAGCAAUAUUACGUCCG | -0.823 ± 0.11 | 0.0188 ± 0.13 |
| CUAUAGCAAUAUUACGUCUG | 0.043 ± 0.088 | -0.099 ± 0.1 |
| CUAUAGCAAUAUUACGUGGG | -3.25 ± 0.19 | -2.16 ± 0.15 |
| CUCAAGCAAUAUUACGAAAA | -3.12 ± 0.28 | -2.65 ± 0.28 |
| CUCAAGCAAUAUUACGAACC | -2.43 ± 0.39 | -2.38 ± 0.28 |
| CUCAAGCAAUAUUACGAAGA | -3.8 ± 0.25 | -2.55 ± 0.2 |
| CUCAAGCAAUAUUACGACAU | -3.206 ± 0.018 | -1.9 ± 0.034 |
| CUCAAGCAAUAUUACGAUCU | -3.53 ± 0.26 | -2.59 ± 0.24 |
| CUCAAGCAAUAUUACGCACG | -2.51 ± 0.14 | -0.724 ± 0.16 |
| CUCAAGCAAUAUUACGCAGU | -3.28 ± 0.18 | -2.32 ± 0.22 |
| CUCAAGCAAUAUUACGCCGA |  | -1.29 ± 0.34 |
| CUCAAGCAAUAUUACGCCUG | -4.22 ± 0.31 | -2.52 ± 0.24 |
| CUCAAGCAAUAUUACGCGCC | -1.95 ± 0.32 | -1.15 ± 0.26 |
| CUCAAGCAAUAUUACGCGCU | -2.36 ± 0.18 | -3.39 ± 0.32 |
| CUCAAGCAAUAUUACGCGGG | -3.15 ± 0.25 | -2.42 ± 0.25 |
| CUCAAGCAAUAUUACGCGUG | -3.3 ± 0.21 | -3.41 ± 0.43 |
| CUCAAGCAAUAUUACGCUGA | -3.13 ± 0.18 | -2.41 ± 0.2 |
| CUCAAGCAAUAUUACGGAAG | -1.84 ± 0.11 | -0.365 ± 0.12 |
| CUCAAGCAAUAUUACGGAUU | -3.66 ± 0.17 | -2.81 ± 0.19 |
| CUCAAGCAAUAUUACGGCCC | -2.42 ± 0.41 |  |

| Sequence | self-splicing fitness (ln) (30 °C) | self-splicing fitness (ln) (37 °C) |
| --- | --- | --- |
| CUCAAGCAAUAUUACGGGCG | -2.1 ± 0.086 | -1.34 ± 0.094 |
| CUCAAGCAAUAUUACGUACG | -1.02 ± 0.065 | -0.705 ± 0.088 |
| CUCAAGCAAUAUUACGUAGG | -0.955 ± 0.068 | -0.324 ± 0.11 |
| CUCAAGCAAUAUUACGUAUG | -2.91 ± 0.099 | -2.61 ± 0.12 |
| CUCAAGCAAUAUUACGUCCA | -2.66 ± 0.32 | -1.51 ± 0.27 |
| CUCAAGCAAUAUUACGUUGC | -4.05 ± 0.29 | -2.39 ± 0.21 |
| CUCCAGCAAUAUUACGAAUA | -3.91 ± 0.47 | -2.54 ± 0.28 |
| CUCCAGCAAUAUUACGACGA | -3.77 ± 0.26 | -2.5 ± 0.18 |
| CUCCAGCAAUAUUACGCCCU | -3.46 ± 0.34 | -2 ± 0.26 |
| CUCCAGCAAUAUUACGCGCA | -3.34 ± 0.31 | -2.56 ± 0.49 |
| CUCCAGCAAUAUUACGCGCU | -4.33 ± 0.26 | -2.2 ± 0.2 |
| CUCCAGCAAUAUUACGCUCA | -2.97 ± 0.17 | -2.31 ± 0.19 |
| CUCCAGCAAUAUUACGCUGG | -1.92 ± 0.23 |  |
| CUCCAGCAAUAUUACGGACC | -3.65 ± 0.32 | -2.64 ± 0.44 |
| CUCCAGCAAUAUUACGGAGA | -3.61 ± 0.27 | -2.21 ± 0.21 |
| CUCCAGCAAUAUUACGGAGG | -3.04 ± 0.17 | -2.44 ± 0.13 |
| CUCCAGCAAUAUUACGGCCG | -1.3 ± 0.1 | -0.777 ± 0.14 |
| CUCCAGCAAUAUUACGGCGU | -3.61 ± 0.17 | -3.4 ± 0.23 |
| CUCCAGCAAUAUUACGGCUA | -3.19 ± 0.26 | -2.27 ± 0.2 |
| CUCCAGCAAUAUUACGGGCG | -1.74 ± 0.092 | -1.2 ± 0.13 |
| CUCCAGCAAUAUUACGGGGA | -3.46 ± 0.18 | -0.678 ± 0.1 |
| CUCCAGCAAUAUUACGGGGG | -3.56 ± 0.16 | -2.89 ± 0.19 |
| CUCCAGCAAUAUUACGGGUC | -3.88 ± 0.24 | -2.2 ± 0.22 |
| CUCCAGCAAUAUUACGGUCA | -2.86 ± 0.13 | -1.82 ± 0.13 |
| CUCCAGCAAUAUUACGGUUA | -3.03 ± 0.18 | -2.45 ± 0.16 |

| Sequence | self-splicing fitness (ln) (30 °C) | self-splicing fitness (ln) (37 °C) |
| --- | --- | --- |
| CUCCAGCAAUAUUACGUACC | -3.31 ± 0.29 | -1.19 ± 0.32 |
| CUCCAGCAAUAUUACGUAUC | -3.01 ± 0.16 | -2.73 ± 0.23 |
| CUCCAGCAAUAUUACGUCAC | -3.88 ± 0.26 | -2.69 ± 0.29 |
| CUCCAGCAAUAUUACGUUCG | -3.41 ± 0.13 | -2.39 ± 0.17 |
| CUCGAGCAAUAUUACGAAUG | -1.91 ± 0.14 | -1.15 ± 0.17 |
| CUCGAGCAAUAUUACGACGU | -3.11 ± 0.14 | -1.59 ± 0.14 |
| CUCGAGCAAUAUUACGAUCA | -2.04 ± 0.4 |  |
| CUCGAGCAAUAUUACGCAAC | -3.47 ± 0.49 | -1.71 ± 0.31 |
| CUCGAGCAAUAUUACGCCGC |  | -2.12 ± 0.4 |
| CUCGAGCAAUAUUACGCCGG | -3.32 ± 0.43 | -1.17 ± 0.34 |
| CUCGAGCAAUAUUACGCCGU |  | -1.79 ± 0.26 |
| CUCGAGCAAUAUUACGCGCC | -2.53 ± 0.19 | -2.12 ± 0.37 |
| CUCGAGCAAUAUUACGCGCU | -3.66 ± 0.22 | -2.69 ± 0.23 |
| CUCGAGCAAUAUUACGGGAA | -3.85 ± 0.35 | -2.42 ± 0.23 |
| CUCGAGCAAUAUUACGGGAC | -3.8 ± 0.24 | -2.41 ± 0.27 |
| CUCGAGCAAUAUUACGGGAG |  | -1.11 ± 0.22 |
| CUCGAGCAAUAUUACGUAAG | -2.81 ± 0.17 | -1.26 ± 0.18 |
| CUCGAGCAAUAUUACGUCGG | -1.37 ± 0.15 | -0.674 ± 0.21 |
| CUCGAGCAAUAUUACGUUAA | -3.68 ± 0.2 | -2.53 ± 0.17 |
| CUCGAGCAAUAUUACGUUUA | -3.22 ± 0.41 | -3.05 ± 0.4 |
| CUCGAGCAAUAUUACGUUUG | -3.74 ± 0.24 | -2.11 ± 0.16 |
| CUCUAGCAAUAUUACGACGA | -2.13 ± 0.22 | -0.928 ± 0.16 |
| CUCUAGCAAUAUUACGAGAG | -2.9 ± 0.18 | -1.69 ± 0.2 |
| CUCUAGCAAUAUUACGAGGG | -3.28 ± 0.22 | -1.45 ± 0.18 |
| CUCUAGCAAUAUUACGAGUA |  | -1.18 ± 0.21 |

| Sequence | self-splicing fitness (ln) (30 °C) | self-splicing fitness (ln) (37 °C) |
| --- | --- | --- |
| CUCUAGCAAUAUUACGAGUU | -3.44 ± 0.38 | -3.55 ± 0.42 |
| CUCUAGCAAUAUUACGAUAG | -3.88 ± 0.2 | -3.58 ± 0.28 |
| CUCUAGCAAUAUUACGAUCA | -2.28 ± 0.23 | -2.58 ± 0.33 |
| CUCUAGCAAUAUUACGAUGU | -3.53 ± 0.22 | -2.92 ± 0.25 |
| CUCUAGCAAUAUUACGCAAU |  | -3.09 ± 0.38 |
| CUCUAGCAAUAUUACGCAGC | -3.2 ± 0.25 |  |
| CUCUAGCAAUAUUACGCCAU |  | -3.56 ± 0.33 |
| CUCUAGCAAUAUUACGCCCG |  | -0.832 ± 0.42 |
| CUCUAGCAAUAUUACGCGAG | -3.63 ± 0.25 | -3.28 ± 0.37 |
| CUCUAGCAAUAUUACGCGAU | -3.29 ± 0.17 | -2.88 ± 0.19 |
| CUCUAGCAAUAUUACGCUCA | -1.32 ± 0.3 | -3.25 ± 0.37 |
| CUCUAGCAAUAUUACGCUCU | -3.22 ± 0.19 | -3.77 ± 0.31 |
| CUCUAGCAAUAUUACGCUUA | -4 ± 0.37 | -3.06 ± 0.27 |
| CUCUAGCAAUAUUACGCUUG | -3.57 ± 0.24 | -3.45 ± 0.42 |
| CUCUAGCAAUAUUACGGCAC | -2.61 ± 0.26 |  |
| CUCUAGCAAUAUUACGGCUC | -3.83 ± 0.22 | -2.09 ± 0.21 |
| CUCUAGCAAUAUUACGGGAA | -2.54 ± 0.14 | -1.11 ± 0.11 |
| CUCUAGCAAUAUUACGGGAG | -3.78 ± 0.19 | -2.26 ± 0.19 |
| CUCUAGCAAUAUUACGGUGA | -3.56 ± 0.21 | -1.8 ± 0.2 |
| CUCUAGCAAUAUUACGGUUC | -2.69 ± 0.17 | -2.46 ± 0.29 |
| CUCUAGCAAUAUUACGUAGC | -3.51 ± 0.37 | -3.53 ± 0.46 |
| CUCUAGCAAUAUUACGUUUC | -5.02 ± 0.45 | -2.62 ± 0.19 |
| CUGAAGCAAUAUUACGAAGA | -2.5 ± 0.36 | -0.888 ± 0.25 |
| CUGAAGCAAUAUUACGAAGU | -3.58 ± 0.2 | -2.77 ± 0.41 |

Source: the supplement of paper PMC7877785
